Biological target: p53 (Homo sapiens (Human), UniProt P04637 1-393)
Assay: cell-based or functional assay

Sequence of p53 (P04637 whole entry): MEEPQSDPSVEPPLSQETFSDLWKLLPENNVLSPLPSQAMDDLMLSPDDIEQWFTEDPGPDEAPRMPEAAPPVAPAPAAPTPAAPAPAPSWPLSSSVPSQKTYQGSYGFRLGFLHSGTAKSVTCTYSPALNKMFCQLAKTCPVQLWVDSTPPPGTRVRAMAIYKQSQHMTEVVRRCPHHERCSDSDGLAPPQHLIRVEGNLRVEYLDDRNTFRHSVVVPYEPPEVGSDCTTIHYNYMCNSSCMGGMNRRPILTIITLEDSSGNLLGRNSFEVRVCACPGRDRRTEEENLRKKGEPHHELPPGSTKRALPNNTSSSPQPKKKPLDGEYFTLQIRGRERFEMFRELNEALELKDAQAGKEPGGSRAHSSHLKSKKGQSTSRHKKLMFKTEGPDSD

B1: GSE56 (p53 dominant negative peptide) (peptide)
peptide: MDGWCPGRDRRTEEENFRKKEEHCPELPPGSAKRALPTSTSSSPQQKKKPLDGEYFTLKIRGRERFEMFRELNEALELKDARAAEESGDSRAHSSYPKIVS
Question: For B1, which “fold decrease in TaqMan assay of CDKN1A (p21) gene fold expression at 24 hours post-editing” value is on record?
Answer: The value was ~3 fold.
